The results in this text go back to patent US20120039897A1.

The target of this experiment is Aβ(1-40) peptide. The experiment can be described thus: cell-based or functional assay.
Sequence of Aβ(1-40) peptide (peptide, as listed by the source): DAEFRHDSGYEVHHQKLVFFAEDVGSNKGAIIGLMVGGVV

B1: ACA (control antibody; humanized 266 antibody, U.S. Pat. No. 7,195,761 B2) (antibody, INN chains, looked up, V domains shown)
VH: EVQLVESGGGLVQPGGSLRLSCAASGFTFSRYSMSWVRQAPGKGLELVAQINSVGNSTYYPDTVKGRFTISRDNAKNTLYLQMNSLRAEDTAVYYCASGDYWGQGTLVTVSS
VL: DVVMTQSPLSLPVTLGQPASISCRSSQSLIYSDGNAYLHWFLQKPGQSPRLLIYKVSNRFSGVPDRFSGSGSGTDFTLKISRVEAEDVGVYYCSQSTHVPWTFGQGTKVEIK
Molecule B1 came in with an inhibition of Aβ fibril formation (THT fluorescence), antibody 1.3 µM of 20%.
